From paper PMC12912425, “Collagen-targeted tracers for molecular imaging of atrial fibrosis and sensitive detection of atrial fibrillation” (npj Cardiovascular Health, 2025)

Columns and labels:
[1] = Mouse plasma stability; format: in vitro ADME; conditions: Cy5.5-T-peptide 100 µg in 200 µL naïve C57BL/6 mouse plasma (citrated), 37 °C, acetonitrile precipitation, HPLC C18, 280 nm
Protocol: Cy5.5-T-Peptide (100 µg, 10 µL in PBS) was added to 200 µL of naïve C57BL/6 mouse plasma and the sample was incubated at 37 °C over 4 h. Aliquots (40 µL) were taken from the mixture at 5, 10, 30, 60 and 240 min, and then added to 40 µL of acetonitrile. The formed precipitates were separated by centrifugation and the supernatant was analyzed by HPLC. The percentage of decomposition at each timepoint was then calculated from the chromatograms (Supplementary Fig. 1). The HPLC conditions were: Phenomenex Luna® 5 µm C18(2) 100 Å, LC Column 150 ×4.6 mm at a flow rate of 1 mL/min (Method: 5–95% buffer B to A over 20 min, λabs = 280 nm).

[2] = Blood clearance of Cy5.5-labeled tracers after IV injection; format: in vivo, mouse; conditions: Cy5.5-conjugated tracer 0.5 mg/kg IV; mixed male/female 'AF + HF' and control mice, 28-31 weeks; blood NIR fluorescence at 2-4, 12, 240 min; one-phase decay fit; Mean±SEM, n=4 (EP-3533), n=8 (T-peptide)
Protocol: ‘AF + HF’ mice and non-transgenic controls (28–31 weeks) were intravenously injected with Cy5.5-labeled T-peptide or EP-3533 (0.5 mg/kg), as described above. Blood samples (2.5 µl) were collected from the opposite tail vein at 2–4, 12 and 240 min, and diluted in 47.5 µl of citrated PBS (0.32% w/v sodium citrate). 50 µl samples were transferred into 96-well plates (Optiplate, black-walled, transparent bottom; PerkinElmer, MA, USA) and scanned on the Odyssey CLx NIRF scanner using the ‘Manual L1’ intensity and 3 mm focus offset settings. Following subtraction of unlabeled blood background, the total fluorescence per well was plotted against time. The blood fluorescence levels at t = 0 and half-life were extrapolated from a one-phase decay non-linear regression, and the data was presented as percentage from the value of t = 0[26].

[3] = tested on: MMP-2-degraded collagen IV
Protocol: Ex vivo fluorescent imaging was performed according to our published protocol[26]. In brief, fluorescently-tagged EP-3533 or the T-peptide were injected intravenously into mice at 0.5 mg/kg via the tail vein. The S-peptide was delivered at 0.466 mg/kg, being the identical mole equivalent to the T-peptide (0.258 µmol/kg). Injections were performed by a person blinded to the administered substance. Animals were humanely euthanised 4 h post-injection by an overdose of ketamine (300 mg/kg) and xylazine (30 mg/kg) and perfused via the heart with 20 ml of PBS. The liver, lung, spleen, kidney, brain, thigh muscle and the heart were next harvested and the atria separated from the ventricles. Organs were then scanned on the Odyssey CLx NIRF 2-D scanner (Li-Cor Biosciences, NE, USA) at 169 µm resolution using the ‘Manual L1’ or ‘L2’ intensity and 0.5 mm focus offset settings. A noninjected mouse served for background correction. The mean fluorescence intensity value per pixel (1 pixel = 169 × 169 µm = 0.0285 mm^2) were then extracted from regions of interest using Image Studio 5.2 software (Li-Cor Biosciences).

[4] = 'AF + HF' mice, Cy5.5 conjugates equimolar 0.258 µmol/kg IV, 4 h, ex vivo NIR, S-peptide signal corrected for brightness, n=5 per group

In the case of TLTYTWS [Cy5.5-T-peptide], the “tracer remaining intact after 60 min in mouse plasma” value ([1]; 60 min) was 60%, the “tracer remaining intact after 4 h in mouse plasma” value ([1]; 240 min) was 22% and the “blood (circulating) half-life” value [2] was 9.23 ± 0.9 min. For the same substance, the “T-peptide binding in atria relative to the S-peptide” value [3, 4] was 1.72 fold, the “T-peptide binding in ventricles relative to the S-peptide” value [3, 4] was 1.78 fold and the “atria/ventricles retention in 'AF + HF' mice” value ([3]; mouse, in vivo) was 2.61 fold.
